Results from publication PMC3349575.

Target: XD-CGFP fusion protein (X domain of the measles virus phosphoprotein fused to the C-terminal half of eGFP) (UniProt P03422)
Test: split-GFP reassembly assay (fluorescence to OD600 ratio of E. coli co-expressing NGFP-N_TAIL and XD-CGFP)
Details: parent: est. 1.1; read off a plot

UniProt P03422, sequence (P03422 459-507): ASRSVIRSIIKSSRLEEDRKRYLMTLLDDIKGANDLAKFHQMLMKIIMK

Row | Substance | response (x10^4 fluorescence intensity / OD600)
1 | NGFP-wtN_TAIL fusion protein (C-terminal domain of the measles virus nucleoprotein fused to the N-terminal half of eGFP) mutant 1 (substitutions not printed) | 1.1
2 | NGFP-wtN_TAIL fusion protein (C-terminal domain of the measles virus nucleoprotein fused to the N-terminal half of eGFP) mutant 3 (substitutions not printed) | 0.54
3 | NGFP-wtN_TAIL fusion protein (C-terminal domain of the measles virus nucleoprotein fused to the N-terminal half of eGFP) mutant 2 (substitutions not printed) | 0.9
